The values below come from the RNAGym collection of RNA variant scans (doi:10.1021/acssynbio.7b00057).

B1: Pistol ribozyme (parent)
chain: GGGUCGUUGUUCCAUAAUCGCGUGGAUAUGGCACGCAAGUUUCUACCGGGCACCGUAAAUGUCCGACUGGAGCCGUUCGGGCGGCUAUAAACAGACCUCAGGCCCGAAGCGUGGCGGCACCUGCCGCCGGUGGUAAAAAAGAUCGGAAGAGCACACGUCU

The variants in this series derive from B1. Kind of series: aptazyme ON/OFF ratio, guanine; higher = stronger switching; co-transcriptional cleavage with and without guanine.
Turning to GGGUCGACCUGGAAUAAUCGCGUGGAUAUGGCACGCAAGUUUCUACCGGGCACCGUAAAUGUCCGACUGGAGCCGUUCGGGCGGCUAUAAACAGACCUCAGGCCCGAAGCGUGGCGGCACCUGCCGCCGGUGGUAAAAAAGAUCGGAAGAGCACACGUCU [U7A U8C G9C U11G C12G C13A], the “aptazyme ON/OFF ratio” value was 1.12. The result for GGGUCGACCUGGUAUAAUCGCGUGGAUAUGGCACGCAAGUUUCUACCGGGCACCGUAAAUGUCCGACUGGAGCCGUUCGGGCGGCUAUAAACAGACCUCAGGCCCGAAGCGUGGCGGCACCUGCCGCCGGUGGUAAAAAAGAUCGGAAGAGCACACGUCU [U7A U8C G9C U11G C12G C13U] reads 1.11.

On to GGGUCGACCUGGGAUAAUCGCGUGGAUAUGGCACGCAAGUUUCUACCGGGCACCGUAAAUGUCCGACUGGAGCCGUUCGGGCGGCUAUAAACAGACCUCAGGCCCGAAGCGUGGCGGCACCUGCCGCCGGUGGUAAAAAAGAUCGGAAGAGCACACGUCU [U7A U8C G9C U11G C12G C13G], for which the “aptazyme ON/OFF ratio” value amounted to 1.12. In the case of GGGUCGACCUGUCAUAAUCGCGUGGAUAUGGCACGCAAGUUUCUACCGGGCACCGUAAAUGUCCGACUGGAGCCGUUCGGGCGGCUAUAAACAGACCUCAGGCCCGAAGCGUGGCGGCACCUGCCGCCGGUGGUAAAAAAGAUCGGAAGAGCACACGUCU [U7A U8C G9C U11G C12U] it was 1.28; in that of GGGUCGACCUGACAUAAUCGCGUGGAUAUGGCACGCAAGUUUCUACCGGGCACCGUAAAUGUCCGACUGGAGCCGUUCGGGCGGCUAUAAACAGACCUCAGGCCCGAAGCGUGGCGGCACCUGCCGCCGGUGGUAAAAAAGAUCGGAAGAGCACACGUCU [U7A U8C G9C U11G C12A], 1.08. The result for GGGUCGACCUGGCAUAAUCGCGUGGAUAUGGCACGCAAGUUUCUACCGGGCACCGUAAAUGUCCGACUGGAGCCGUUCGGGCGGCUAUAAACAGACCUCAGGCCCGAAGCGUGGCGGCACCUGCCGCCGGUGGUAAAAAAGAUCGGAAGAGCACACGUCU [U7A U8C G9C U11G C12G] reads 1.12. In the case of GGGUCGACUUUGAAUAAUCGCGUGGAUAUGGCACGCAAGUUUCUACCGGGCACCGUAAAUGUCCGACUGGAGCCGUUCGGGCGGCUAUAAACAGACCUCAGGCCCGAAGCGUGGCGGCACCUGCCGCCGGUGGUAAAAAAGAUCGGAAGAGCACACGUCU [U7A U8C G9U C12G C13A] it was 1.23; in that of GGGUCGACUUUGUAUAAUCGCGUGGAUAUGGCACGCAAGUUUCUACCGGGCACCGUAAAUGUCCGACUGGAGCCGUUCGGGCGGCUAUAAACAGACCUCAGGCCCGAAGCGUGGCGGCACCUGCCGCCGGUGGUAAAAAAGAUCGGAAGAGCACACGUCU [U7A U8C G9U C12G C13U], 1.37; in that of GGGUCGACUUUGGAUAAUCGCGUGGAUAUGGCACGCAAGUUUCUACCGGGCACCGUAAAUGUCCGACUGGAGCCGUUCGGGCGGCUAUAAACAGACCUCAGGCCCGAAGCGUGGCGGCACCUGCCGCCGGUGGUAAAAAAGAUCGGAAGAGCACACGUCU [U7A U8C G9U C12G C13G], 1.16. In the case of GGGUCGACCUCCAAUAAUCGCGUGGAUAUGGCACGCAAGUUUCUACCGGGCACCGUAAAUGUCCGACUGGAGCCGUUCGGGCGGCUAUAAACAGACCUCAGGCCCGAAGCGUGGCGGCACCUGCCGCCGGUGGUAAAAAAGAUCGGAAGAGCACACGUCU [U7A U8C G9C U11C C13A], the “aptazyme ON/OFF ratio” value is 1.05. In the case of GGGUCGACCUCCUAUAAUCGCGUGGAUAUGGCACGCAAGUUUCUACCGGGCACCGUAAAUGUCCGACUGGAGCCGUUCGGGCGGCUAUAAACAGACCUCAGGCCCGAAGCGUGGCGGCACCUGCCGCCGGUGGUAAAAAAGAUCGGAAGAGCACACGUCU [U7A U8C G9C U11C C13U] it was 1.03; in that of GGGUCGACCUCCGAUAAUCGCGUGGAUAUGGCACGCAAGUUUCUACCGGGCACCGUAAAUGUCCGACUGGAGCCGUUCGGGCGGCUAUAAACAGACCUCAGGCCCGAAGCGUGGCGGCACCUGCCGCCGGUGGUAAAAAAGAUCGGAAGAGCACACGUCU [U7A U8C G9C U11C C13G], 1.04; in that of GGGUCGACCUCGAAUAAUCGCGUGGAUAUGGCACGCAAGUUUCUACCGGGCACCGUAAAUGUCCGACUGGAGCCGUUCGGGCGGCUAUAAACAGACCUCAGGCCCGAAGCGUGGCGGCACCUGCCGCCGGUGGUAAAAAAGAUCGGAAGAGCACACGUCU [U7A U8C G9C U11C C12G C13A], 1.07.

As to GGGUCGACCUCGGAUAAUCGCGUGGAUAUGGCACGCAAGUUUCUACCGGGCACCGUAAAUGUCCGACUGGAGCCGUUCGGGCGGCUAUAAACAGACCUCAGGCCCGAAGCGUGGCGGCACCUGCCGCCGGUGGUAAAAAAGAUCGGAAGAGCACACGUCU [U7A U8C G9C U11C C12G C13G], the “aptazyme ON/OFF ratio” value amounted to 1.13. Consider GGGUCGACCUCGUAUAAUCGCGUGGAUAUGGCACGCAAGUUUCUACCGGGCACCGUAAAUGUCCGACUGGAGCCGUUCGGGCGGCUAUAAACAGACCUCAGGCCCGAAGCGUGGCGGCACCUGCCGCCGGUGGUAAAAAAGAUCGGAAGAGCACACGUCU [U7A U8C G9C U11C C12G C13U], for which the “aptazyme ON/OFF ratio” value is 1.09.

As to GGGUCGACCUCUGAUAAUCGCGUGGAUAUGGCACGCAAGUUUCUACCGGGCACCGUAAAUGUCCGACUGGAGCCGUUCGGGCGGCUAUAAACAGACCUCAGGCCCGAAGCGUGGCGGCACCUGCCGCCGGUGGUAAAAAAGAUCGGAAGAGCACACGUCU [U7A U8C G9C U11C C12U C13G], the “aptazyme ON/OFF ratio” value turned out to be 1.09. For the variant GGGUCGACCUCUAAUAAUCGCGUGGAUAUGGCACGCAAGUUUCUACCGGGCACCGUAAAUGUCCGACUGGAGCCGUUCGGGCGGCUAUAAACAGACCUCAGGCCCGAAGCGUGGCGGCACCUGCCGCCGGUGGUAAAAAAGAUCGGAAGAGCACACGUCU [U7A U8C G9C U11C C12U C13A], the “aptazyme ON/OFF ratio” value was 1.04. On to GGGUCGACCUCUUAUAAUCGCGUGGAUAUGGCACGCAAGUUUCUACCGGGCACCGUAAAUGUCCGACUGGAGCCGUUCGGGCGGCUAUAAACAGACCUCAGGCCCGAAGCGUGGCGGCACCUGCCGCCGGUGGUAAAAAAGAUCGGAAGAGCACACGUCU [U7A U8C G9C U11C C12U C13U], for which the “aptazyme ON/OFF ratio” value stood at 1.06.
